Key:
人PD-L1胞外区-6His [1] = biological target: T1, 人PD-L1胞外区-6His (human, UniProt Q9NZQ7 19-238); test: AlphaLISA competition: antibody titrated against binding of His-tagged PD-L1 to biotinylated PD-1
T1 construct: also called PD-L1-6His; 人PD-L1胞外结构区-6His蛋白

人PD-L1胞外区-6His [2] = biological target: T1, 人PD-L1胞外区-6His; test: SPR (Biacore), multi-cycle kinetics; antibody captured on Protein A chip, PD-L1 as analyte from 40 nM in 2-fold dilutions, 6 concentrations

T1 sequence (Q9NZQ7 other isoform, or with tags, fused parts or gaps): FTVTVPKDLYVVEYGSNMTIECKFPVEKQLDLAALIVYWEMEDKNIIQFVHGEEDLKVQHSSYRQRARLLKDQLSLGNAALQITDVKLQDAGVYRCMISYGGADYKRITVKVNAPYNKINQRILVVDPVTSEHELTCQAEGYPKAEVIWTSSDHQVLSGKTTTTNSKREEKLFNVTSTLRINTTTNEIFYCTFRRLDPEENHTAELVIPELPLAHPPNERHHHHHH

IC50 (人PD-L1胞外区-6His [1]): 0.0372 µg/mL
Kd (人PD-L1胞外区-6His [2]): 7.1 nM
B1: 抗PD-L1全人源单克隆抗体 (antibody, V domains shown)
VH: QVQLVQSGGELKRPGSSVKVSCKASGGTFSSYAISWVRQAPGQGLEWMGRIIPIFGTANYAQKFQGRVTITADESTSTAYMELSSLRSEDTAVYYCASSSYRHFAFDIWGQGTTVTVSS
VL: QSALTQPASVSGSPGQSITISCTGTSSDVGSYNLVSWYQQHPGKAPKLMIYEVTKRPSGVSNRFSGSKSGNTASLTISGLQAEDEADYYCSSYAGSNNLVFGGGTKVTVL
notes: also called 抗PD-L1抗体; 抗PD-L1全长抗体
